From the DeepSol protein solubility set

Test: soluble on expression in E. coli; label from the status in PepcDB or PDB records

| Sequence | soluble on expression in E. coli |
| --- | --- |
| MKYFEFTFHTSPCTETVNDVLAAVLGEAGFESFVESEGGLTAYIQQALCDENTIKNAITEFPLPDTEITYTYVEAEDKDWNEEWEKNFFQPIVIDNRCVIHSTFHKDVPQATYDIVINPQMAFGTGHHETTSLIIGELLDNELKDKSLLDMGCGTSILAILARMRGARPCIAIDIDEWCVRNSIENIELNHVDDIAVSQGDASSLVGKGPFDIIIANINRNILLNDMKQYVACMHPGSELYMSGFYVDDIPFIRREAEKNGLTFVHHKEKNRWAAVKFTY | not soluble |
| MKTRSEVFQFEKELKWEHPAPGIRRQIMGYDGQLMMVKVEFEKGAVGTLHEHYHSQATYVASGKFELTIGDRKEILSTGDGYYVAPDEPHGCVCLEAGVLIDTFSPMRADFLE | not soluble |
| MPNCPNCQKPVYFAERVSSLGKDWHRPCLKCANKACGKTLSAGSHSEHEGKPYCNRCYGALFGPKGYGHGGTESHTFLQGTTGN | soluble |
| GSGKNLIMIQVEALQGFVVNKSINGKEITPNLNKWINKSLYFDNYFYQVAQGNTSDAEFMSLNSLYPAQSGAAYYTYAGNTFNSIPKDLGDKGYYTAALHGYNEGFWNRNVMYKSEKFDDFYGQTSYKNDEVVGMGLSDESFLNQSLAKMKTFKQPYFSFLITLSSHYPFNDTAGYEKYTMNKLDVGEYKDTLLGNYFEGIHYTDEQLGKFLDKLDKEGLTKNSIIVLYGDHFAIPKENINQLYSFEGIKDPTDLTWYEYQKVPMFIHFPDDEHKGVNHTYSGQMDIYPTIANLYNISNNYMFGEDILNVKDGDSTNVTFRNGSFTDGK | not soluble |
| MGSDKIHHHHHHMQQNDKKLFVLDTNVLLHEPLAIYSFKEHDVIIPMTVLEELDSIKDRKRDVSRDARVAIRALEDILGGPTTPEQILKGVALPTREEHSQVSGHLSIFPDHQVEFIIGSLPGDNNDNRIINTALHLQKIHFPRTVVLVTKDINMRLKAKGAGIERVEDYRSDQLIDDVRFLAKGFYQFSGDFWQNVDKVSTERRGLHTVHQVPLEHLGNENFYLNQYLIDDSSDFCGRVVSKTDKHLEMIDRGRDRLLHHEAWGINPKNIYQGMALDALLDPDIELIILTGPAGCGKTLLAMAAALELVVERKLYDKIIVTRNTPEIAESIGFLPGSEEEKMTPWLAAITDTLEVLHKNDVNPAGSVNYIMEKANIQFKSINFMRGRSIQNSVVILDECQNLTASQIKTMITRMGEGTKLICSGNLAQIDSTYLTAVTSGLTYMVERFKDFEGSANIYLNGVVRSRLAEFAEEHL | not soluble |
| MGSDKIHHHHHHMPTTASVLIRDSAPREATSPPFLDIRDVHKRFAGVKALRGVSLAIERGQIYHLLGENGCGKSTLIKIISGAQPPDEGTLVVEGREVAGLSPIMALAAGIETVYQDLSLLPNLSVAENIALSQQLVASGGQLARRLDLARLKATATRALEAVNLPAGDGFLATRVDELPIATRQLIAIARVIATDAKLVIMDEPTTALTKREVDNLIAVVEKLRAKGVAVLFVTHKLDECRTIGGRAIILRDGRKVMEGDIADFTKKDLSHWMTGRALDDSRYREAERGGERLLDVRDLGRANAFGGVSFSLNRGEILGVTGLLDSGRNELALALAGVCPADRGGVSLAGERVVLSQPADAIAAGIGYLPEDRLSEGLFLEKPIADNIIASVLDRLRGRLGMLDRPLSRSRAQEMTDDLQIATPDIANPVQSLSGGNQQRVLIGRWLMIEPRLLVLHGPTVGVDVGSKDTIFRIIQRLAKGGMAVIIISDDLPELLQNCDRILVMRKGRVAEVFDAEGLGEGALYRALVAEESPRSLP | not soluble |
| MNGLATSLGKGQESAIGGSSAIGEYIRPLPQPGDRPEPLSAKPTFLSRSGSARCRSESDMENERNSNTSKQRYSGKVHLCVARYSYNPFDGPNENPEAELPLTAGKYLYVYGDMDEDGFYEGELLDGQRGLVPSNFVDFVQDNESRLASTLGNEQDQNFINHSGIGLEGEHILDLHSPTHIDAGITDNSAGTLDVNIDDIGEDIVPYPRKITLIKQLAKSVIVGWEPPAVPPGWGTVSSYNVLVDKETRMNLTLGSRTKALIEKLNMAACTYRISVQCVTSRGSSDELQCTLLVGKDVVVAPSHLRVDNITQISAQLSWLPTNSNYSHVIFLNEEEFDIVKAARYKYQFFNLRPNMAYKVKVLAKPHQMPWQLPLEQREKKEAFVEFSTLPAGPPAPPQDVTVQAGVTPATIRVSWRPPVLTPTGLSNGANVTGYGVYAKGQRVAEVIFPTADSTAVELVRLRSLEAKGVTVRTLSAQGESVDSAVAAVPPELLVPPTPHPRPAPQSKPLASSGVPETKDEHLGPHARMDEAWEQSRAPGPVHGHMLEPPVGPGRRSPSPSRILPQPQGTPVSTTVAKAMAREAAQRVAESSRLEKRSVFLERSSAGQYAASDEEDAYDSPDFKRRGASVDDFLKGSELGKQMVS | not soluble |
| EQAEAQLAELDLLASMFPGENELIVNDQLAVAELKDCIEKKTMEGRSSKVYFTINMNLDVSDEKMAMFSLACILPFKYPAVLPEITVRSVLLSRSQQTQLNTDLTAFLQKHCHGDVCILNATEWVREHASGYVSRDTSS | soluble |
| MCMPTKKYTEKFKISLVYLYRKGTSKQTLEDFGVSSASLSRWIKWYDVTDVDLNEAANILQMYELKKQKDKLEAEVLELTKAIQLFNSDLNTVLEHHHHHH | soluble |
| MSLYDELKNEFKRVLLDRQLTEELAEECATAFTDTTQAGAYSHGINRFPRFIQQLEQGDIVPNAIPTKVLSLGSIEQWDAHQAIGNLTAKKMMDRAIELASQHGVGVIALRNANHWMRGGSYGWQAAEKGYIGICWTNALAVMPPWGAKECRIGTNPLIIAVPTTPITMVDMSCSMYSYGMLEVHRLAGRQTFVDAGFDDEGNLTRDPSIVEKNRRLLPMGFWKGSGLSIVLDMIATLLSNGESTVAVTEDKNDEYCVSQVFIAIEVDRLIDGKSKDEKLNRIMDYVKTAERSDPTQAVRLPGHEFTTILSDNQTNGIPVDERVWAKLKTLEGHHHHHH | not soluble |
| MGSDKIHHHHHHMDFIEVYPNALPNDLCDRLILAFEQHAGVVDGQTGNGVDLEKKISRDLTLDSFADLQPLKNELLGYTLKGTVDYFTKYSMALMGAVAVSVSDEQGQPVTLTPANFAALGAPRSDGLVKYLYRSGSINVQKYQQNKGGYPHWHSEQFPQNGHNEALHRVVLYMFYLNDMEEGGETEFYYQQRKISPKKGTMVIAPAGFTHTHRGNKPVSGDKYIATSWIMFNRAEQLYAVIA | not soluble |
| MAAAKRKLVFDSPNESSVNFETSPNFPKEWKIDGMDIENRIRNFRDELQAQGLCPVGSAGIDPKSKFRTEYRRIVNANTILTDVLRLQQKEGEWLKNASGLLEYDIQSLHARRDHLDNAVEQLKSQLSRLDSSVAILKSQQMAVKSVLELREDEYLADDADSNLPDEFLKFSKISKLCAASLQSYENVKKRNEEMQKELIAERNRQRKLHDATMKMMEEKERVRVEQLEDLFKDFSLEQLTRLRDRIRQAQK | not soluble |
| METRTYAIGVEATMDVIGGKWKPIILCNLRHGAMRPSDLKRGITGISQKMLTQQLRELEEDNIIERKVYNQVPPKVEYYLSDYGQSLSAVLDNLCNWGESHVAHLQEQGQEIYLKCED | not soluble |
| GKSPEAECNKITEEPKCSEEKICSWHKEVKAGEKNCQFNSTKASKS | soluble |
| MGLFTTRQLLGYTEQKVKFNPLFLSLFFRRTVTFPTQEVMLDKITGKTPIAAYVSPVVGGKVLRNRGGETRVLRPGYVKPKHEVNYAQVVERLPGEDPARLNDPAYRRLRILTDNLKQEEKAIVQVEEMQAVSAVLNGKYTMQGEQFDTVEVDFGRSAGNNIIQATGKKWSEQDRETFDPTYDLDMYCDQASGLINIAVMDGKVWRLLNGFKLFREKLDTRRGSNSQLETAVKDLGAVVSFKGYYGDLAIVVAKTSYVADNGTEKRYLPEGTLVLGNTAAEGIRCYGAIQDSQALAEGIVAATRYPKHWLTVGDPANEYTMTQSAPLMVLPDPDEFVIVTVG | not soluble |
| MTIEEIARIVEGEILCGNKDLNIERAVATDLMSDVLAFAEPNVLLITGLHSPQAVRTAMVVGIPAVLFVRKRDIPETIVNFAKECNITVLATNLSMFETCGRLYMNGLKPVRRAIE | not soluble |
| MGSDKIHHHHHHADDDTPVVTLGTSLTDSQRNGTLKTLTAPLNGGNYQTITVTGSDLVKYLNPSGDNFTTSSGVWSSAMIQKTSSGSGINVKILDYNGKNNITTITANQYKNAALTAGITDANIYVTSAVPIDGSGALAGVYAAYAKNGNALNQKQVNAAQDEMNTLSGITQDNKNKEGYSDAQLNNAVAGAKSEMAKQGQNISDSQIRDIVNNQININHLGNTINNNQKNQIVNLLIEIRDSGALKNGSFKSQASKLSSQIQNGAKNIFNKFNTQENRSWLQQLWDNVVNFFSHIFG | not soluble |
| MGHHHHHHSHMFMREIELKGHIIDSFILAKVFDRTLELGGDYKVLEFDIGKKKIDTSYAKLLISGDTQQHLDQILEELQNVGANIPEIENANLKPALKDSVLPDGFYSTTNHPTHVKVNDEWIEVANPKMDAVIVVYPEEKRAETKVIRKVKKGDFVLIGHNGIRVMPPEKSREAGQLFEFMNSEVSSEKPKEAIIKRIAKEMHEIREEYKKTGTGGIAIVGGPAIIHTGGGPALAKMVELGYIQAILAGNALATHDIESALYGTSLGVNIKTAKPVTGGHKHHIYAINAINDAGNIKNAVESGVLKEGIMYQCIKNNIPYVLAGSIRDDGPIPDVITDSMVAQDKMRTTVMDKKMVIMLSTLLHSVATGNLMPSYIKTVCVDIQPSTVTKLMDRGTSQAIGVVTDVGVFLVLLLKELERLELQE | soluble |
| MVTSKKCPTCHGKRLSTSVLKCKINNLDIADFTNLSIDDALKFIKKIDSPKANVIIEPLQQQLESLSYIGLNYLTLSRESTSLSGGESQRIKLIRHLNSALSDLVYIIDEPSIGLHPEDIQRINEIILSLKNKGNTVLVVEHDPDVIKIADYIIDLGPLAGKYGGDITFTGSYHELLNSTTHTGDALRRMHQLKSPNLSASNFINLKNVSRNNIKNMTVTLPEQAMTVVTGVAGSGKSSLIHTGLEALADTIFIDQKPAHASSRSNLLTYLNIFDDVRSYFSEVTGLKKSLFSYNSAGACPECHGKGIIKTELAFMPDFTQTCDVCHGKRYKPEVLDVKVEGYNIADILALTVDEAITFFNKNKDIAQPLQALKSTGLNYMTLGQTLDTLSGGEVQRVKLSKYLTKTVHQHIFVFDEPTTGLHEDDIPILIDCFKRLIDEHNTVVIIEHNLTMMTYADWIIDIGPFAGEKGGQLLYQGEPQGLLQINASLTAKHLKRYTERLEHHHHHH | soluble |
| TMNPLYSLKRSEERRNVVLSRMLDEKYISKEEYDAALKEPIVASYHGAKFEFRADYVTEMVRQEMVRRFGEENAYTSGY | not soluble |
| MTQLNQRRRGNRLENAIYDTTYTLLSQYGLDQVTFSRVATAAATSRSVLYRYWDSTFDLIFHTIIHQIQKTPIALTTTPLDTGSLRTDLILLAQRFIQQTSTGPFRYFRLLFATALNAQNQRDLTQLVTQIDHANLTLIEPLLTNAQNHGELQIWPNQAAQLVLFQQLRYCDIINQPMNTDQQLTNLIDQVVLPALRASGVANRHFHH | not soluble |
| MGSDKIHHHHHHMLTTVKEKIEALNSEVSYRVKLWQYAPNLPKVESRDRLIVDTLKSEGVYITTLQELGLPSTAQLLKASHTLLPGMGQGSYAESAQNPPEIYTVTHIPDFYNWGSESRLLNILENYIGLPVAYHGVQIRKDFVNANQFSTMLWHRDSEDRRIVKIIIYLSDVEEKHGPFEYVPASFTSIDSLNFYRLYYKIHKSGINDEALNKIVPKSAWKSCTGPAGSVIIADTQRLLHHGTVRTEERSTLFYAYTANPAKRPGLCTQYWDDTFPKPNYS | not soluble |
